Consider four molecules from patent publication US20220242958A1 (published 2022).

Test [1] deals with T1, human CD4, cell-expressed (human, UniProt P01730 26-458).
T1 construct: whole, on cells
Kind of test: FACS, MOLM-13 cells. For orientation: A flow cytometer gives signals particle by particle.

In test [2] the target is T2, IL23R, cell-expressed on human T cells (human, UniProt Q5VWK5 24-629).
T2 sequence (looked up): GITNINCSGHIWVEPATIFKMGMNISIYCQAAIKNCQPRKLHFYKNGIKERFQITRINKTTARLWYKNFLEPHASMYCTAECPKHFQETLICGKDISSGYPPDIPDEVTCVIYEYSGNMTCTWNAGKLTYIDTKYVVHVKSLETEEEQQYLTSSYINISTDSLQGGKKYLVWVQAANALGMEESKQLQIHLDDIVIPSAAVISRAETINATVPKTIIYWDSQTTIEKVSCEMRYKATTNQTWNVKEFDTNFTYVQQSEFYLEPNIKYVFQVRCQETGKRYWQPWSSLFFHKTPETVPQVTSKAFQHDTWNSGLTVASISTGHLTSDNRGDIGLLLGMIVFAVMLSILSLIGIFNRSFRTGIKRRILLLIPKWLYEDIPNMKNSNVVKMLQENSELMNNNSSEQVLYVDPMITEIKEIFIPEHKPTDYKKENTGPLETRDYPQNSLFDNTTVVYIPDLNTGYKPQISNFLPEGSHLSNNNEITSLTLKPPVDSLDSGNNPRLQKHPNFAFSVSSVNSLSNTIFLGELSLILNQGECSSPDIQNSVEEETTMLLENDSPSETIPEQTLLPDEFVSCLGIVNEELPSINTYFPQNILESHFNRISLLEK
Kind of test: cell-based or functional assay.

The target in test [3] is T3, IL12Rβ2-Fc (human, UniProt Q99665 24-622).
T3 construct: extracellular domain; bought; also called hIL-12Rβ2-Fc; Fc-fusion of human IL12Rβ2 extracellular domain (R&D Systems #1959-B2)
T3 sequence (looked up): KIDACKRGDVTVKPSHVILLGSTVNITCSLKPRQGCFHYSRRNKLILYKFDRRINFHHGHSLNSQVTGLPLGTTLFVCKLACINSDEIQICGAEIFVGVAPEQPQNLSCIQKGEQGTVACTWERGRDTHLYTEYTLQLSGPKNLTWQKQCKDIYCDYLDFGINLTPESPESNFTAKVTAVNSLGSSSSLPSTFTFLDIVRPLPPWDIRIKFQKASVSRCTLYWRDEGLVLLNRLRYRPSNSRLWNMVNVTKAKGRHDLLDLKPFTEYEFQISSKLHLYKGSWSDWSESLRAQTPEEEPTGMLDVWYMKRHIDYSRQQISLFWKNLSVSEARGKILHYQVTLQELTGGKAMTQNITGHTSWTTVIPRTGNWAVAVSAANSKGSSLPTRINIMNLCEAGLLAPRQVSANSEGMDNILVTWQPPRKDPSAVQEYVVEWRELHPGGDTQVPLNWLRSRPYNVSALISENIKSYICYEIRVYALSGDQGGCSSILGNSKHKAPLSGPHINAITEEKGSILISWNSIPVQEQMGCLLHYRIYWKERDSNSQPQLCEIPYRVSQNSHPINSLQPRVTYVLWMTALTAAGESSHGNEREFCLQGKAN
As to the kind of experiment: SPR and competition ELISA, against IL12Rb2#1. A general note: In an ELISA, binding on a coated surface is turned into a signal by an enzyme label.

In test [4] the target is T1, human CD4, cell-expressed. As to the kind of experiment: cell-based or functional assay.
The target of test [5] is T4, human CXCR4 (on cells, membrane extracts or viral lipoparticles) (human, UniProt P61073 1-352).
T4 construct: whole, on cells; see assay; also called hCXCR4 VLPs; CXCR4-VLP
T4 sequence (P61073 whole entry): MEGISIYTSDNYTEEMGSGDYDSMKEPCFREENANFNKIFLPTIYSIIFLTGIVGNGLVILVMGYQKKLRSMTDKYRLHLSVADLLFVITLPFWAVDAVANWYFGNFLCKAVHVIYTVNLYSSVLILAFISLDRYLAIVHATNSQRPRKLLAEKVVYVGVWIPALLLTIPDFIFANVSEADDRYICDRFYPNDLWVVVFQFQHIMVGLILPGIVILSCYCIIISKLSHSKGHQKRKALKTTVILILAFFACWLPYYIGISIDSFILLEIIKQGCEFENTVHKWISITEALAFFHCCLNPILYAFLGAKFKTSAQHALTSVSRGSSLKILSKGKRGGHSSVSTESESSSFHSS
As to the kind of experiment: ELISA, hCXCR4 VLPs.

The target in test [6] is CXCR4 and CD4 co-expressed on cells (human, UniProt P61073 1-352; P01730 26-458). As to the kind of experiment: cell-based or functional assay.
Sequence of CXCR4 and CD4 co-expressed on cells (P61073 whole entry, chain 1 of 2, other chains not shown): as the sequence (P61073 whole entry) above

B1: IL23R#19-CD4#8 (bispecific antibody)
chain: EVQLVESGGGLVQPGGSLTLSCVASGRTFSTDVMGWFRQAPGKEREFVAAHRTSGISTVYAASVKGRFTISRDNAKNTVYLGMKSLKPEDTAVYVCAAGSDASGGYDYWGQGTLVTVSSGGGGSGGGGSGGGGSGGGGSGGGGSGGGGSGGGGSEVQLVESGGGSVQPGGSLTLSCGTSGRTFNVMGWFRQAPGKEREFVAAVRWSSTGIYYTQYADSVKSRFTISRDNAKNTVYLEMNSLKPEDTAVYYCAADTYNSNPARWDGYDFRGQGTLVTVSS
notes: also called BI#42; T023200042
As for B1, in test [1], the binding result is “binds”. Further, in test [2], the “IC50, IL-17 release PBMC D840” value is 58.9 nM and the “fold ctrl, IL-17 release PBMC D840” value was 1.7 fold.

B2: IL12Rb2#2: 135A07 (VHH)
VHH: EVQLVESGGRLVQAGDSLRLSCAASGRTFTSYRMGWFRQAPGKEREFVSALRWSSGNIDYTYYADSVKGRFSISGDYAKNTVYLQMNSLKAEDTAVYYCAASTRWGVMESDTEYTSWGQGTLVTVSS
notes: also called LG135A07; IL12Rβ2#2
Consider B2, for which the “fold difference in KD and ligand competition between the family members” value in test [3] is 3.5 fold.

B3: 03F11 (CD4#8, Table 10) (VHH)
VHH: EVQLVESGGGSVQPGGSLTLSCGTSGRTFNVMGWFRQAPGKEREFVAAVRWSSTGIYYTQYADSVKSRFTISRDNAKNTVYLEMNSLKPEDTAVYYCAADTYNSNPARWDGYDFRGQGTQVTVSS
On to B3, for which, in test [4], the “IC50, HIV-1 BaL(R5) in PBMC” value is 610 nM.

B4: 281F12-25GS-03F11 (bispecific antibody)
chain: EVQLVESGGGLVQAGDSLRLSCAASGRAFSRYAMGWFRQAPGKEREFVAAIGWGPSKTNYADSVKGRFTISRDNAKNTVYLQMNTLKPEDTAVYSCAAKFVNTDSTWSRSEMYTYWGQGTQVTVSSGGGGSGGGGSGGGGSGGGGSGGGGSEVQLVESGGGSVQPGGSLTLSCGTSGRTFNVMGWFRQAPGKEREFVAAVRWSSTGIYYTQYADSVKSRFTISRDNAKNTVYLEMNSLKPEDTAVYYCAADTYNSNPARWDGYDFRGQGTQVTVSS
notes: also called CXCR4#2-25GS-CD4#8
In the case of B4, the binding result in test [5] is recorded as “binds”. Also, in test [6], the “IC50, HIV-1 NL 4.3(X4) in MT-4” value turned out to be 0.21 nM; the “IC50, HIV-1 NL 4.3(X4) in PBMC” value was 0.12 nM; the “IC50, HIV-1 NL 4.3 (X4) in U87” value was determined as 2.67 nM.
